Laboratory results reported in patent US20200140552A1 (Sanofi, published 2020).

T1: human CD3 (SPR antigen of Example 2) (human)
T1 chain: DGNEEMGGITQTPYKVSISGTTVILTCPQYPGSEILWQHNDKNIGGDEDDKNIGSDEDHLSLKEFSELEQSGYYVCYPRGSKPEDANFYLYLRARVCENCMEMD


Legend:
[1] = molecular target: T2, recombinant human CD38 (SPR antigen of Example 2) (human, UniProt P28907 43-300); experiment: SPR
[2] = molecular target: T1, human CD3 (SPR antigen of Example 2); experiment: SPR; KD rounded to integer per the table's title
[3] = molecular target: T3, human CD38 expressed on the surface of recombinant murine preB::300.19 cells (human, UniProt P28907 1-300); experiment: flow cytometry on hCD38-expressing murine preB::300.19 cells
T3 construct: whole, on cells; also called hCD38-expressing cells; cells expressing human CD38

[4] = molecular target: T2, recombinant human CD38 (SPR antigen of …); experiment: SPR; KD rounded to integer; the cell gives two values for mid/low, the first taken as the CD3mid construct
[5] = molecular target: T1, human CD3 (SPR antigen of Example 2); experiment: as above
[6] = molecular target: T2, recombinant human CD38 (SPR antigen of …); experiment: SPR against recombinant protein; the cell gives two values for mid/low, the first taken as the CD3mid construct
[7] = molecular target: human CD28 (SPR antigen of Example 2) (human, UniProt P10747 19-152); experiment: SPR; KD rounded to integer; the cell gives two values for mid/low, the second taken as the CD3low construct
[8] = molecular target: T2, recombinant human CD38 (SPR antigen of …); experiment: as above
[9] = molecular target: T1, human CD3 (SPR antigen of Example 2); experiment: as above
[10] = molecular target: T2, recombinant human CD38 (SPR antigen of …); experiment: SPR against recombinant protein; the cell gives two values for mid/low, the second taken as the CD3low construct
[11] = molecular target: T4, hCD38-his (SEQ ID NO: 2) (human, UniProt P28907 45-300); experiment: SPR (summary table; Table K value rounded)
T4 construct: also called human CD38-histag (ID2); soluble extracellular domain of humanCD38

Binder | Kd [7] [nM] | Kd [8] [nM] | Kd [9] [nM] | Kd [10] [nM] | also measured
CD38HHY1370xCD28supxCD3mid trispecific binding protein (other) light 1: DIVMTQTPLSLSVTPGQPASISCKSSQSLVHNNANTYLSWYLQKPGQSPQSLIYKVSNRFSGVPDRFSGSGSGTDFTLKISRVEAEDVGVYYCGQGTQYPFTFGSGTKVEIKGQPKAAPDIQMTQSPSSLSASVGDRVTITCQASQNIYVWLNWYQQKPGKAPKLLIYKASNLHTGVPSRFSGSGSGTDFTLTISSLQPEDIATYYCQQGQTYPYTFGQGTKLEIKTKGPSRTVAAPSVFIFPPSDEQLKSGTASVVCLLNNFYPREAKVQWKVDNALQSGNSQESVTEQDSKDSTYSLSSTLTLSKADYEKHKVYACEVTHQGLSSPVTKSFNRGEC heavy 1: QVQLVQSGAEVVKPGASVKVSCKASGYTFTSYYIHWVRQAPGQGLEWIGSIYPGNVNTNYAQKFQGRATLTVDTSISTAYMELSRLRSDDTAVYYCTRSHYGLDWNFDVWGKGTTVTVSSSQVQLVESGGGVVQPGRSLRLSCAASGFTFTKAWMHWVRQAPGKQLEWVAQIKDKSNSYATYYADSVKGRFTISRDDSKNTLYLQMNSLRAEDTAVYYCRGVYYALSPFDYWGQGTLVTVSSRTASTKGPSVFPLAPCSRSTSESTAALGCLVKDYFPEPVTVSWNSGALTSGVHTFPAVLQSSGLYSLSSVVTVPSSSLGTKTYTCNVDHKPSNTKVDKRVESKYGPPCPPCPAPEAAGGPSVFLFPPKPKDTLMISRTPEVTCVVVDVSQEDPEVQFNWYVDGVEVHNAKTKPREEQFNSTYRVVSVLTVLHQDWLNGKEYKCKVSNKGLPSSIEKTISKAKGQPREPQVCTLPPSQEEMTKNQVSLSCAVKGFYPSDIAVEWESNGQPENNYKTTPPVLDSDGSFFLVSKLTVDKSRWQEGNVFSCSVMHEALHNHYTQKSLSLSLG heavy 2: QVQLVESGGGVVQPGRSLRLSCAASGFTFSSYGMHWVRQAPGKGLEWVAVIWYDGSNKYYADSVKGRFTISGDNSKNTLYLQMNSLRAEDTAVYYCARMFRGAFDYWGQGTLVTVSSASTKGPSVFPLAPCSRSTSESTAALGCLVKDYFPEPVTVSWNSGALTSGVHTFPAVLQSSGLYSLSSVVTVPSSSLGTKTYTCNVDHKPSNTKVDKRVESKYGPPCPPCPAPEAAGGPSVFLFPPKPKDTLMISRTPEVTCVVVDVSQEDPEVQFNWYVDGVEVHNAKTKPREEQFNSTYRVVSVLTVLHQDWLNGKEYKCKVSNKGLPSSIEKTISKAKGQPREPQVYTLPPCQEEMTKNQVSLWCLVKGFYPSDIAVEWESNGQPENNYKTTPPVLDSDGSFFLYSKLTVDKSRWQEGNVFSCSVMHEALHNHYTQKSLSLSLG light 2: AIQMTQSPSSLSASVGDRVTITCRASQGIRNDLGWYQQKPGKAPKLLIYAASSLQSGVPSRFSGSGSGTDFTLTISGLQPEDSATYYCLQDYIYYPTFGQGTKVEIKRTVAAPSVFIFPPSDEQLKSGTASVVCLLNNFYPREAKVQWKVDNALQSGNSQESVTEQDSKDSTYSLSSTLTLSKADYEKHKVYACEVTHQGLSSPVTKSFNRGEC |  |  |  |  | Kd [1]: 1 nM; Kd [2]: 48 nM
CD38VH1xCD28supxCD3mid trispecific binding protein (other, also called antiCD38_C2-CD38-1_VH1-VL1xCD28supxCD3mid) light 1: DIVMTQTPLSLSVTPGQPASISCKSSQSLVHNNANTYLSWYLQKPGQSPQSLIYKVSNRFSGVPDRFSGSGSGTDFTLKISRVEAEDVGVYYCGQGTQYPFTFGSGTKVEIKGQPKAAPDIQMTQSPSSLSASVGDRVTITCQASQNIYVWLNWYQQKPGKAPKLLIYKASNLHTGVPSRFSGSGSGTDFTLTISSLQPEDIATYYCQQGQTYPYTFGQGTKLEIKTKGPSRTVAAPSVFIFPPSDEQLKSGTASVVCLLNNFYPREAKVQWKVDNALQSGNSQESVTEQDSKDSTYSLSSTLTLSKADYEKHKVYACEVTHQGLSSPVTKSFNRGEC heavy 1: QVQLVQSGAEVVKPGASVKVSCKASGYTFTSYYIHWVRQAPGQGLEWIGSIYPGNVNTNYAQKFQGRATLTVDTSISTAYMELSRLRSDDTAVYYCTRSHYGLDWNFDVWGKGTTVTVSSSQVQLVESGGGVVQPGRSLRLSCAASGFTFTKAWMHWVRQAPGKQLEWVAQIKDKSNSYATYYADSVKGRFTISRDDSKNTLYLQMNSLRAEDTAVYYCRGVYYALSPFDYWGQGTLVTVSSRTASTKGPSVFPLAPCSRSTSESTAALGCLVKDYFPEPVTVSWNSGALTSGVHTFPAVLQSSGLYSLSSVVTVPSSSLGTKTYTCNVDHKPSNTKVDKRVESKYGPPCPPCPAPEAAGGPSVFLFPPKPKDTLMISRTPEVTCVVVDVSQEDPEVQFNWYVDGVEVHNAKTKPREEQFNSTYRVVSVLTVLHQDWLNGKEYKCKVSNKGLPSSIEKTISKAKGQPREPQVCTLPPSQEEMTKNQVSLSCAVKGFYPSDIAVEWESNGQPENNYKTTPPVLDSDGSFFLVSKLTVDKSRWQEGNVFSCSVMHEALHNHYTQKSLSLSLG heavy 2: QVQLVQSGAEVVKPGASVKVSCKASGYTFTSYAMHWVKEAPGQRLEWIGYIYPGQGGTNYNQKFQGRATLTADTSASTAYMELSSLRSEDTAVYFCARTGGLRRAYFTYWGQGTLVTVSSASTKGPSVFPLAPCSRSTSESTAALGCLVKDYFPEPVTVSWNSGALTSGVHTFPAVLQSSGLYSLSSVVTVPSSSLGTKTYTCNVDHKPSNTKVDKRVESKYGPPCPPCPAPEAAGGPSVFLFPPKPKDTLMISRTPEVTCVVVDVSQEDPEVQFNWYVDGVEVHNAKTKPREEQFNSTYRVVSVLTVLHQDWLNGKEYKCKVSNKGLPSSIEKTISKAKGQPREPQVYTLPPCQEEMTKNQVSLWCLVKGFYPSDIAVEWESNGQPENNYKTTPPVLDSDGSFFLYSKLTVDKSRWQEGNVFSCSVMHEALHNHYTQKSLSLSLG light 2: DIVLTQSPATLSLSPGERATISCRASQSVSSYGQGFMHWYQQKPGQPPRLLIYGASSRATGIPARFSGSGSGTDFTLTISPLEPEDFAVYYCQQNKEDPWTFGGGTKLEIKRTVAAPSVFIFPPSDEQLKSGTASVVCLLNNFYPREAKVQWKVDNALQSGNSQESVTEQDSKDSTYSLSSTLTLSKADYEKHKVYACEVTHQGLSSPVTKSFNRGEC |  |  |  |  | EC50 [3]: 11 nM; Kd [4]: 4 nM; Kd [5]: 21 nM; Kd [6]: 4 nM
CD38VH1xCD28cvnxCD3low trispecific binding protein (other, also called CD38VH1xCD28cvnxCD3mid/low) VH 1: QVQLQESGPGLVKPSQTLSLTCTVSGFSLSDYGVHWVRQPPGKGLEWLGVIWAGGGTNYNPSLKSRKTISKDTSKNQVSLKLSSVTAADTAVYYCARDKGYSYYYSMDYWGQGTTVTVS VL 1: DIVLTQSPASLAVSPGQRATITCRASESVEYYVTSLMQWYQQKPGQPPKLLIFAASNVESGVPARFSGSGSGTDFTLTINPVEANDVANYYCQQSRKVPYTFGQGTKLEIK VH 2: QVQLVESGGGVVQPGRSLRLSCAASGFTFTKAWMHWVRQAPGKGLEWVAQIKDKSNSYATYYADSVKGRFTISRDNSKNTLYLQMNSLRAEDTAVYYCRGVYYALSPFDYWGQGTLVTVSS VL 2: DIVMTQTPLSLSVTPGQPASISCKSSQSLVHNNGNTYLSWYLQKPGQSPQLLIYKVSNRFSGVPDRFSGSGSGTDFTLKISRVEAEDVGVYYCGQGTQYPFTFGGGTKVEIK VH 3: QVQLVQSGAEVVKPGASVKVSCKASGYTFTSYAMHWVKEAPGQRLEWIGYIYPGQGGTNYNQKFQGRATLTADTSASTAYMELSSLRSEDTAVYFCARTGGLRRAYFTYWGQGTLVTVSS VL 3: DIVLTQSPATLSLSPGERATISCRASQSVSSYGQGFMHWYQQKPGQPPRLLIYGASSRATGIPARFSGSGSGTDFTLTISPLEPEDFAVYYCQQNKEDPWTFGGGTKLEIK | 34 | 6 | 59 | 6 | 
CD38VH1xCD28supxCD3low trispecific binding protein (other, also called CD38VH1xCD28supxCD3mid/low) VH 1: QVQLVQSGAEVVKPGASVKVSCKASGYTFTSYYIHWVRQAPGQGLEWIGSIYPGNVNTNYAQKFQGRATLTVDTSISTAYMELSRLRSDDTAVYYCTRSHYGLDWNFDVWGKGTTVTVSS VL 1: DIQMTQSPSSLSASVGDRVTITCQASQNIYVWLNWYQQKPGKAPKLLIYKASNLHTGVPSRFSGSGSGTDFTLTISSLQPEDIATYYCQQGQTYPYTFGQGTKLEIK VH 2: QVQLVESGGGVVQPGRSLRLSCAASGFTFTKAWMHWVRQAPGKGLEWVAQIKDKSNSYATYYADSVKGRFTISRDNSKNTLYLQMNSLRAEDTAVYYCRGVYYALSPFDYWGQGTLVTVSS VL 2: DIVMTQTPLSLSVTPGQPASISCKSSQSLVHNNGNTYLSWYLQKPGQSPQLLIYKVSNRFSGVPDRFSGSGSGTDFTLKISRVEAEDVGVYYCGQGTQYPFTFGGGTKVEIK VH 3: QVQLVQSGAEVVKPGASVKVSCKASGYTFTSYAMHWVKEAPGQRLEWIGYIYPGQGGTNYNQKFQGRATLTADTSASTAYMELSSLRSEDTAVYFCARTGGLRRAYFTYWGQGTLVTVSS VL 3: DIVLTQSPATLSLSPGERATISCRASQSVSSYGQGFMHWYQQKPGQPPRLLIYGASSRATGIPARFSGSGSGTDFTLTISPLEPEDFAVYYCQQNKEDPWTFGGGTKLEIK | 4 | 6 | 76 | 6 | 
antiCD38_C2-CD38-1_VH3-VL3 (antibody, human IgG1, kappa, V domains shown) VH: QVQLVQSGAEVVKPGASVKVSCKASGYTFTSFNMHWVKEAPGQRLEWIGYIYPGNGGTNYNQKFQGRATLTADTSASTAYMELSSLRSEDTAVYFCARTGGLRRAYFTYWGQGTLVTVSS VL: DIVLTQSPATLSLSPGERATISCRASESVDSYGNGFMHWYQQKPGQPPRLLIYLASSRATGIPARFSGSGSGTDFTLTISPLEPEDFAVYYCQQNKEDPWTFGGGTKLEIKR |  |  |  |  | Kd [11]: 0.48 nM
